# In the DeepSol protein solubility set:
# Experiment: soluble on expression in E. coli; label from the status in PepcDB or PDB records
row,Sequence,soluble on expression in E. coli
1,MGHHHHHHSHVHMKDFFYFRNHFCITFELLGINLYELMKNNNFQGFSLSIVRRFTLSVLKCLQMLSVEKIIHCDLKPENIVLYQKGQASVKVIDFGSSCYEHQKVYTYIQSRFYRSPEVILGHPYDVAIDMWSLGCITAELYTGYPLFPGENEVEQLACIMEVLGLPPAGFIQTASRRQTFFDSKGFPKNITNNRG,soluble
2,MGHHHHHHSHYPPIEFDKYKCKNSEDFYLFVGRLWHEKRPEEAIRGCIKAKKKIVVIGSGYLEKYLRDKYGKNPYVEIKGFVSEEEKVDLLASCKAVIYPCIAEDFGIVPIEAFASGKPVIADNSGFPPYVVNEERGIITDCSNPDNIAKAIEELEKKKYDPDKIREFAKQF,soluble
3,MGIFETMSQVRRLPQALAAAVATPPALAGSGTLRGLIGLDDSLGEAVTTRAEALTIPAVLRARNLLSTTVARTPLVCDGTLPPFVPVAAPPGAATMQTPFHRMLATADDLLFNGVACWALDRDESGTCIGAIHIPLDTWQIEENTVRVNGKAVDPMEVCIFVGIHGGLLTHASETFTDARNLVRAAARVAQNPAALIELRQTNNAQLSPDDVDRIINGYVAARRGRNSGVGFSSSGLEVHEHEMAKENLLIEGRNAAAVDVARAMNVPAAFIDATVGGTSLSYQNAASRMIELVTFGVEPLMSAIEARLNQPDMHADHLANPLKFDPAALLDAIPTTPTIGAQPHGENS,not soluble
4,MGITVMARIDNYEQRFGGIGRLYTPDSLARLRQAHICVIGIGGVGSWVVEALARSGIGELTLIDMDDICVTNINRQLPAMSGTIGKLKTEVMSERVKLINPECTVNIIDDFISPENQSDYLNRGYDYVIDAIDNVKTKASLIAYCKRNKINVITIGGAGGQTDPTQIQIADLSKTIQDPLLAKVRSVLRKDYNFSQNPKRKFSIDAVFSTQPLIFPQMTEGCSTSATMNCANGFGAATMITATFGFFAVSRVIDKLLKKKSLEHHHHHH,not soluble
5,MGKGDSIIVAVRVRPFNDREKTRNCKLVIEMPDEETTVIRDPKTNDEKRFTYDHSYWSHDGFSEKKNGYLEPTDPHYADQRRVFEDLGRGVLANAWAGYNCSLFAYGQTGSGKSYSIVGFKNNKGIVPIVCEELFKQIADNKKKNMQFEVFVSMMEIYCEKVRDLLSSTPPPKGGLKVREHPKNGFYVENLTTVPVNSFKEIEAKIEEGTKSRTIAATQMNATSSRAHTIVKITFNQKSSKQAGGTSMKKSEINLVDLAGSERQSAAGTEGDRLKEGIVINQSLTTLGRVIKALHDSQKAKSGKKTQIPYRDSVLTCLLKNALGGNSKTIMIAAISPADINFEETLSTLRFADRAKSIKTNAVVNENQTERALRELREENLRLQSQIQGGTAGDASNEEIEKLRRQLAENQKEMEEMEKSWQQKIAEEAAKHASGASEKVEMEAKKKKMCHLWNLNEDPALTNVIVHFIPVGESVVGNKPTSSGNFIQMSGLSILPQHVTLKNDGNNQIHLSPCSEDLDIFINGKPVHGETQLQQNDRVFFGGNHLYVFNNPTKKGIRTDITYENAQAEIAQNHAAALGNRGLGGGSKRDLILEEELMSTLPLVQRANAMATELGRNVKFEIVLVSPEMRGLTSGLTEIWVKVHNISEDTYFLWEKSRFMNRYYGMQEMYEAKQDGSEDWNMPKERDPFYEPPDSPVFIASSVVFLQSLAYLIDVEEQFPIVDLSGQEIGLLTVGLSPCSTTGKELRGEYVEDPDQLIGKNIAFKVKVISAVGLPRRILKSNCKYRFFGSKKMTTTATVSGNTPAYGHEETFQFKPVTKEVADYLANSNLYITFWGTQRPRGASSRKNSISTIGSNEAREGPNKAKRVERLVHQAKTSENRNISVKALETVLKGVDDNENRKTRKQSMKKAGSTTIKSRSGSKKPKAK,not soluble
6,MGKHKVGAVFLAGVLAMGTVMTGCSGKDETEGKTVIEMVQYKPEAVDIFEQFQDEFNATHDDIYLKIDSPNDAMTILKTRFIREDNPDIIGIGGDINYSNFLDADMLMDISDFEGLNDIKEKYLEMNKDLEYVPKDGVYAVPYMANAAGILFNRDMFEEHGWEVPTTWTEFTNLCDQIQSEGIQPLYFGFKDTWTTLAPWNAIAVSLCDSDLTYQVNSGKTTFAENYREVAEKEKALLTYGQKDPVSQGYNDACTAFARGASAMFTIGSYAISQIKSVNPDMNIGSFVFPANEDADKNVLNSGNDLMFCVMKDCKNKEAAYEVLSYMLEDENVKKYLNAQSAVPCKKGDFEVTPELEEMRDYIENGIVADYQDHHYPSEMSVDAMIQTYLMDDSADATDTFMKRFDKEWIRYNRDIVAKVKAYEEGNDHE,not soluble
7,MGKKMVVALGGNAILSNDASAHAQQQALVQTSAYLVHLIKQGHRLIVSHGNGPQVGNLLLQQQAADSEKNPAMPLDTCVAMTQGSIGYWLSNALNQELNKAGIKKQVATVLTQVVVDPADEAFKNPTKPIGPFLTEAEAKEAMQAGAIFKEDAGRGWRKVVPSPKPIDIHEAETINTLIKNDIITISCGGGGIPVVGQELKGVEAVIDKDFASEKLAELVDADALVILTGVDYVCINYGKPDEKQLTNVTVAELEEYKQAGHFAPGSMLPKIEAAIQFVESQPNKQAIITSLENLGSMSGDEIVGTVVTK,soluble
8,MGKNLQALAQLYKNALLNDVLPFWENHSLDSEGGYFTCLDRQGKVYDTDKFIWLQNRQVWTFSMLCNQLEKRENWLKIARNGAKFLAQHGRDDEGNWYFALTRGGEPLVQPYNIFSDCFAAMAFSQYALASGEEWAKDVAMQAYNNVLRRKDNPKGKYTKTYPGTRPMKALAVPMILANLTLEMEWLLPQETLENVLAATVQEVMGDFLDQEQGLMYENVAPDGSHIDCFEGRLINPGHGIEAMWFIMDIARRKNDSKTINQAVDVVLNILNFAWDNEYGGLYYFMDAAGHPPQQLEWDQKLWWVHLESLVALAMGYRLTGRDACWAWYQKMHDYSWQHFADPEYGEWFGYLNRRGEVLLNLKGGKWKGCFHVPRAMYLCWQQFEALS,soluble
9,MGKTSRDKRDIYYRLAKENKWRARSAFKLMQIDDEFQILKGVRRAVDLCAAPGSWSQVLSKRLYEEDQEAKIVAIDLQPMAPIPGVIQLQGDITSVDTANQVIKHFSGEKSDIVICDGAPDVTGIHSLDEFMQAELILAAFNITSHVLKEGGNFLAKIFRSRNSSLLYAQMKKYFKKVYLAKPRSSRQSSCEAFVLCLDYSPPEGFVPTMGKTSLDATDASAISPDIIDGFVTCGDLSGWDSEKSYPLDIDACFPKGEIDEEQKKRYEFKDVVQPPTDPAYKAALDKKKSGVFAKMSADLNRQLKAELSRGKDQKKTPAENVPSVEELEKAAEKFQL,not soluble
10,MGKYFGTDGVRGVANKELTPELAFKIGRFGGYVLTKDTDRPKVIIGRDTRISGHMLEGALVAGLLSTGAEVMRLGVISTPGVAYLTKALDAQAGVMISASHNPVQDNGIKFFGSDGFKLTDEQEAEIEALLDKEVDELPRPTGTNLGQVSDYFEGGQKYLQYIKQTVEEDFSGLHIALDCAHGATSSLAPYLFADLEADISTMGTSPNGMNINDGVGSTHPEVLAELVKEKGADIGLAFDGDGDRLIAVDEKGNIVDGDQIMFICAKYMKETGQLKHNTVVSTVMSNLGFYKALEANGITSDKTAVGDRYVMEEMKRGGYNLGGEQSGHIILLDYITTGDGMLSALQLVNIMKMTKKPLSELAGEMTKFPQLLVNVRVTDKKLALENEKIKEIIRVVEEEMNGDGRILVRPSGTEPLIRVMAEAPTQEVCDAYVHRIVEVVKAEVGAE,not soluble
11,MGLDDALIFTRVVEYHSFTQAAQSLGMQKSTVSRRIALLEERLGVRLLNRTTRKLRLTEVGQAYYERCRQIMHDFAEAEQAVMQLQQAPSGLLRITSPIEFGQMFLASLLGDFMRQYPQITAEVELASRSVDPLQEGVDIVIMVGQPEDSTLVARRLLSTSRWLCASPDYLAAHGTPTSVAELAGHRAVLLSTDSQRYWPLSGDSLPCQRVLSCNNITFAREAVVAGAGIAALPALICAESVHSGRLVRLLADVPLPVGELYAVYPSRRFQAMKVKAFLDFLISRLPADTGRLLEPEAARLITSRP,not soluble
12,MGLFTTRQLLGYTEQKVKFNPLFLSLFFRRTVTFPTQEVMLDKITGKTPIAAYVSPVVGGKVLRNRGGETRVLRPGYVKPKHEVNYAQVVERLPGEDPARLNDPAYRRLRILTDNLKQEEKAIVQVEEMQAVSAVLNGKYTMQGEQFDTVEVDFGRSAGNNIIQATGKKWSEQDRETFDPTYDLDMYCDQASGLINIAVMDGKVWRLLNGFKLFREKLDTRRGSNSQLETAVKDLGAVVSFKGYYGDLAIVVAKTSYVADNGTEKRYLPEGTLVLGNTAAEGIRCYGAIQDSQALAEGIVAATRYPKHWLTVGDPANEYTMTQSAPLMVLPDPDEFVIVTVG,not soluble
13,MGLLKDLSSARDKIERIYGLNKEKLLLLAKVKEGFETSVFDFPFKNIQPDSPYFVCLDPPCKKESAYNKVIGDKNRTVYHEINKTEFENMIKLRTKRLKLLIGEVDAEVSTGDKIEFPVLANGKRRGFIYNVGGLVTDIAWLNIEENTDIGKDIQYLAVAVSQYMDEPLNEHLEMFDKEKHSSCIQIFKMNTSTLHCVKVQTIVHSFGEVWDLKWHEGCHAPHLVGCLSFVSQEGTINFLEIIDNATDVHVFKMCEKPSLTLSLADSLITTFDFLSPTTVVCGFKNGFVAEFDLTDPEVPSFYDQVHDSYILSVSTAYSDFEDTVVSTVAVDGYFYIFNPKDIATTKTTVSRFRGSNLVPVVYCPQIYSYIYSDGASSLRAVPSRAAFAVHPLVSRETTITAIGVSRLHPMVLAGSADGSLIITNAARRLLHGIKNSSATQKSLRLWKWDYSIKDDKYRIDSSYEVYPLTVNDVSKAKIDAHGINITCTKWNETSAGGKCYAFSNSAGLLTLEYLSLEHHHHHH,soluble
14,MGLLVDGRWQDQWYESSKDGAFQRENAQRRNWVTRDGQAGPSGEGGFAAEAGRYHLYVSLACPWAHRTLILRKLKGLEKLIDVSVVSWLMLENGWTFDQQKGSSGDALDDFQFFHQRYTADDPRYTGRVTVPVLWDKQQQRIVSNESAEIIRMFNAAFDELTGNTLDFYPSALQSSIDELNEQIYPKVNNGVYRAGFATSQGAYEEAFDDVFAELDVLENLLGEKRYLTGKHLTEADIRLFTTIVRFDAVYYSHFKCNLRRIADYPNLSNWLRELYQWPGIAETVDFEHIKGHYYASHRTINPTGIIPKGPALDLQAGHDRERLSGEGAWSK,not soluble
15,MGLQSLKEPVENSVQDEFSHFWSQHGEWVEEPNVRRGGESGVQRLVMDNGQTLYAKRQTGHIYRSLLHPLGRPTVLREREALEGLRKLGVVVPEVVFCGAERGEDNAWRALLVTVALDGFDEIEKWLAAGGRERHGELFYERMLKEVASTLARMHLGRWQHSCLYIKHVFVRVTGDGPDAKVEVALLDLEKGRRRLTAQGAAQHDMKQLRRHSSFSAADWQKLVYFYQTAFGSSIKGLES,not soluble
16,MGLSATIMEAEPEGRKRPGSRAIYFHKATLIHLESIFPGLGYTLAKNGLVWPIKRTFFRGKEVFVKDYGPTDPNQLPPFTSLPQDRAEQFMFDACLQAGVEFVWKTPIRQVETSPAGATLTTKAGDVWSADYVIGADGARSSVRTTAGMKLEGPRTNDTFLVVDVKEDEESPLPLERVFHYEHPAMGGRNVMFVPFVGGWRVDLQLLEHDDPEEYSHPEGVRRWIQKVMPAKYGERVTWVSTYRFHQVVADSFTDQHGKVLLAGEAAHLFAPFGARGLNSGTPDAIKAAQGIHTALSARDDQAAKQAIFAAAHERRIAALWNRDCSSTALEHLQGLEHHHHHH,not soluble
17,MGLTIPVILNSVNNLSDARYAAGMGVEFMGFEVEASGERYVSPDLYKAITAWLSGVQTVTELAVLTPAVLTTIQEQYQPDFIQFESVEGISQSDLADLPCIQKIIISTGQEAKIFNNLAQYIFSEANYVLLELSDWTNWTEFQQLITEINTAYPVIWSLPIEKEDAALIQEIELKGISLKGGDEQRPGWKDLDQLIDILEALEEN,not soluble
